Sequences and labels used below:
B1: human F-box protein FBP3a (other)
chain: MKRGGRDSDRNSSEEGTAEKSKKLRTTNEHSQTCDWGNLLQDIILQVFKYLPLLDRAHASQVCRNWNQVFHMPDLWRCFEFELNQPATSYLKATHPELIKQIIKRHSNHLQYVSFKVDSSKESAEAACDILSQLVNCSLKTLGLISTARPSFMDLPKSHFISALTVVFVNSKSLSSLKIDDTPVDDPSLKVLVANNSDTLKLLKMSSCPHVSPAGILCVADQCHGLRELALNYHLLSDELLLALSSEKHVRLEHLRIDVVSENPGQTHFHTIQKSSWDAFIRHSPKVNLVMYFFLYEEEFDPFFRYEIPATHLYFGRSVSKDVLGRVGMTCPRLVELVVCANGLRPLDEELIRIAERCKNLSAIGLGECEVSCSAFVEFVKMCGGRLSQLSIMEEVLIPDQKYSLEQIHWEVSKHLGRVWFPDMMPTW
B2: human F-box protein FBP2 (other)
chain: MERKDFETWLDNISVTFLSLTDLQKNETLDHLISLSGAVQLRHLSNNLETLLKRDFLKLLPLELSFYLLKWLDPQTLLTCCLVSKQWNKVISACTEVWQTACKNLGWQIDDSVQDALHWKKVYLKAILRMKQLEDHEAFETSSLIGHSARVYALYYKDGLLCTGSDDLSAKLWDVSTGQCVYGIQTHTCAAVKFDEQKLVTGSFDNTVACWEWSSGARTQHFRGHTGAVFSVDYNDELDILVSGSADFTVKVWALSAGTCLNTLTGHTEWVTKVVLQKCKVKSLLHSPGDYILLSADKYEIKIWPIGREINCKCLKTLSVSEDRSICLQPRLHFDGKYIVCSSALGLYQWDFASYDILRVIKTPEIANLALLGFGDIFALLFDNRYLYIMDLRTESLISRWPLPEYRESKRGSSFLAGEHPG
B3: human F-box protein FBP5 (other)
chain: MSRRPCSCALRPPRCSCSASPSAVTAAGRPRPSDSCKEESSTLSVKMKCDFNCNHVHSGLKLVKPDDIGRLVSYTPAYLEGSCKDCIKDYERLSCIGSPIVSPRIVQLETESKRLHNKENQHVQQTLNSTNEIEALETSRLYEDSGYSSFSLQSGLSEHEEGSLLEENFGDSLQSCLLQIQSPDQYPNKNLLPVLHFEKVVCSTLKKNAKRNPKVDREMLKEIIARGNFRLQNIIGRKMGLECVDILSELFRRGLRHVLATILAQLSDMDLINVSKVSTTWKKILEDDKGAFQLYSKAIQRVTENNNKFSPHASTREYVMFRTPLASVQKSAAQTSLKKDAQTKLSNQGDQKGSTYSRHNEFSEVAKTLKKNESLKACIRCNSPAKYDCYLQRATCKREGCGFDYCTKCLCNYHTTKDCSDGKLLKASCKIGPLPGTKKSKKNLRRL
notes: Gal4 AD fusion in the two-hybrid screen; the clone appeared to be full length
B4: human F-box protein FBP1 (other)
chain: MDPAEAVLQEKALKFMNSSEREDCNNGEPPRKIIPEKNSLRQTYNSCARLCLNQETVCLASTAMKTENCVAKTKLANGTSSMIVPKQRKLSASYEKEKELCVKYFEQWSESDQVEFVEHLISQMCHYQHGHINSYLKPMLQRDFITALPARGLDHIAENILSYLDAKSLCAAELVCKEWYRVTSDGMLWKKLIERMVRTDSLWRGLAERRGWGQYLFKNKPPDGNAPPNSFYRALYPKIIQDIETIESNWRCGRHSLQRIHCRSETSKGVYCLQYDDQKIVSGLRDNTIKIWDKNTLECKRILTGHTGSVLCLQYDERVIITGSSDSTVRVWDVNTGEMLNTLIHHCEAVLHLRFNNGMMVTCSKDRSIAVWDMASPTDITLRRVLVGHRAAVNVVDFDDKYIVSASGDRTIKVWNTSTCEFVRTLNGHKRGIACLQYRDRLVVSGSSDNTIRLWDIECGACLRVLEGHEELVRCIRFDNKRIVSGAYDGKIKVWDLVAALDPRAPAGTLCLRTLVEHSGRVFRLQFDEFQIVSSSHDDTILIWDFLNDPAAQAEPPRSPSRTYTYISR
B5: Flag-tagged FBP3a (other, not shown: small tags and cut ends)
chain: MKRGGRDSDRNSSEEGTAEKSKKLRTTNEHSQTCDWGNLLQDIILQVFKYLPLLDRAHASQVCRNWNQVFHMPDLWRCFEFELNQPATSYLKATHPELIKQIIKRHSNHLQYVSFKVDSSKESAEAACDILSQLVNCSLKTLGLISTARPSFMDLPKSHFISALTVVFVNSKSLSSLKIDDTPVDDPSLKVLVANNSDTLKLLKMSSCPHVSPAGILCVADQCHGLRELALNYHLLSDELLLALSSEKHVRLEHLRIDVVSENPGQTHFHTIQKSSWDAFIRHSPKVNLVMYFFLYEEEFDPFFRYEIPATHLYFGRSVSKDVLGRVGMTCPRLVELVVCANGLRPLDEELIRIAERCKNLSAIGLGECEVSCSAFVEFVKMCGGRLSQLSIMEEVLIPDQKYSLEQIHWEVSKHLGRVWFPDMMPTW
notes: pcDNA3 construct, Flag tag at the C-terminus
B6: Flag-tagged FBP2 (other, not shown: small tags and cut ends)
chain: MERKDFETWLDNISVTFLSLTDLQKNETLDHLISLSGAVQLRHLSNNLETLLKRDFLKLLPLELSFYLLKWLDPQTLLTCCLVSKQWNKVISACTEVWQTACKNLGWQIDDSVQDALHWKKVYLKAILRMKQLEDHEAFETSSLIGHSARVYALYYKDGLLCTGSDDLSAKLWDVSTGQCVYGIQTHTCAAVKFDEQKLVTGSFDNTVACWEWSSGARTQHFRGHTGAVFSVDYNDELDILVSGSADFTVKVWALSAGTCLNTLTGHTEWVTKVVLQKCKVKSLLHSPGDYILLSADKYEIKIWPIGREINCKCLKTLSVSEDRSICLQPRLHFDGKYIVCSSALGLYQWDFASYDILRVIKTPEIANLALLGFGDIFALLFDNRYLYIMDLRTESLISRWPLPEYRESKRGSSFLAGEHPG
notes: as for B5
B7: Flag-tagged FBP4 (other, not shown: small tags and cut ends)
chain: MAGSEPRSGTNSPPPPFSDWGRLEAAILSGWKTFWQSVSKDRVARTTSREEVDEAASTLTRLPIDVQLYILSFLSPHDLCQLGSTNHYWNETVRNPILWRYFLLRDLPSWSSVDWKSLPYLQILKKPISEVSDGAFFDYMAVYLMCCPYTRRASKSSRPMYGAVTSFLHSLIIPNEPRFALFGPRLEQLNTSLVLSLLSSEELCPTAGLPQRQIDGIGSGVNFQLNNQHKFNILILYSTTRKERDRAREEHTSAVNKMFSRHNEGDDRPGSRYSVIPQIQKLCEVVDGFIYVANAEAHKRHEWQDEFSHIMAMTDPAFGSSGRPLLVLSCISQGDVKRMPCFYLAHELHLNLLNHPWLVQDTEAETLTGFLNGIEWILEEVESKRAR
notes: as for B5
B8: Flag-tagged FBP1 (other, not shown: small tags and cut ends)
chain: MDPAEAVLQEKALKFMNSSEREDCNNGEPPRKIIPEKNSLRQTYNSCARLCLNQETVCLASTAMKTENCVAKTKLANGTSSMIVPKQRKLSASYEKEKELCVKYFEQWSESDQVEFVEHLISQMCHYQHGHINSYLKPMLQRDFITALPARGLDHIAENILSYLDAKSLCAAELVCKEWYRVTSDGMLWKKLIERMVRTDSLWRGLAERRGWGQYLFKNKPPDGNAPPNSFYRALYPKIIQDIETIESNWRCGRHSLQRIHCRSETSKGVYCLQYDDQKIVSGLRDNTIKIWDKNTLECKRILTGHTGSVLCLQYDERVIITGSSDSTVRVWDVNTGEMLNTLIHHCEAVLHLRFNNGMMVTCSKDRSIAVWDMASPTDITLRRVLVGHRAAVNVVDFDDKYIVSASGDRTIKVWNTSTCEFVRTLNGHKRGIACLQYRDRLVVSGSSDNTIRLWDIECGACLRVLEGHEELVRCIRFDNKRIVSGAYDGKIKVWDLVAALDPRAPAGTLCLRTLVEHSGRVFRLQFDEFQIVSSSHDDTILIWDFLNDPAAQAEPPRSPSRTYTYISR
notes: Flag tag at the C-terminus in the pcDNA3 constructs (HeLa, 293 cells); also called Flag-FBP1

We go through 8 molecules from patent US20020123082A1 (NEW YORK UNIVERSITY, published 2002).

His-tagged Elongin C, sequence (Q15369 whole entry): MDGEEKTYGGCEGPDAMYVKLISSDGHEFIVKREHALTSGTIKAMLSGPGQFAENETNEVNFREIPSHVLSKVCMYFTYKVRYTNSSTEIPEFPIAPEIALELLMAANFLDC

One experiment deals with His-tagged Elongin C (human, UniProt Q15369 1-112). Description: pull-down of in vitro translated 35S-FBP on His-Elongin C Nickel-agarose beads. Here is the method:
FIG. 29. FBPs interact specifically with Skp1 through their F-box. The cDNAs of FBPs (wild type and mutants) were transcribed and translated in vitro (IVT) in the presence of 35S- methionine. […] Bound IVT proteins were analyzed by SDS-PAGE and autoradiography. The arrows on the left side of the panels point to the indicated FBPs. The apparent molecular weights of the protein standards are indicated on the right side of the panels.
As examples of the human FBP family, a more detailed characterization of some FBPs was performed. To confirm the specificity of interaction between the novel FBPs and human Skp1, eight in vitro translated FBPs were tested for binding to His-tagged-Skp1 pre-bound to Nickel-agarose beads. As a control Elongin C was used, the only known human Skp1 homolog.
For B1, the binding result is “no binding”.

Regarding B2, the binding result is “no binding”.

Consider B3, for which the binding result was “no binding”.

For the molecule B4, the binding result is reported as “no binding”.

The target in another experiment is human Cul2 (endogenous) (human, UniProt Q13617 1-745, limits assumed). Description: anti-Flag co-immunoprecipitation from transfected HeLa cells, anti-Cul2 immunoblot. From the text: HeLa cells were transfected with mammalian expression plasmids encoding Flag-tagged versions of FBP1 (lane 1), (ΔF)FBP1 (lane 2), FBP4 (lane 3), FBP7 (lane 5), FBP2 (lane 7), (ΔF)FBP2 (lane 8), FBP3a (lane 9), (ΔF)FBP3a (lane 10), or with an empty vector (lanes 4 and 6). Cells were lysed and extracts were subjected to immunoprecipitation with a rabbit anti-Flag antibody (lanes 1-8). Immunoprecipitates were then immunoblotted with a mouse anti-Cul1 monoclonal antibody, a rabbit anti-Skp1 polyclonal antibody or a rabbit anti-Cul2 polyclonal antibody, as indicated. The last lane contains 25 μg of extracts from non-transfected HeLa cells; […] contains recombinant Cul1, Skp1, or Cul2 proteins used as markers.
human Cul2 (endogenous), sequence (Q13617 whole entry): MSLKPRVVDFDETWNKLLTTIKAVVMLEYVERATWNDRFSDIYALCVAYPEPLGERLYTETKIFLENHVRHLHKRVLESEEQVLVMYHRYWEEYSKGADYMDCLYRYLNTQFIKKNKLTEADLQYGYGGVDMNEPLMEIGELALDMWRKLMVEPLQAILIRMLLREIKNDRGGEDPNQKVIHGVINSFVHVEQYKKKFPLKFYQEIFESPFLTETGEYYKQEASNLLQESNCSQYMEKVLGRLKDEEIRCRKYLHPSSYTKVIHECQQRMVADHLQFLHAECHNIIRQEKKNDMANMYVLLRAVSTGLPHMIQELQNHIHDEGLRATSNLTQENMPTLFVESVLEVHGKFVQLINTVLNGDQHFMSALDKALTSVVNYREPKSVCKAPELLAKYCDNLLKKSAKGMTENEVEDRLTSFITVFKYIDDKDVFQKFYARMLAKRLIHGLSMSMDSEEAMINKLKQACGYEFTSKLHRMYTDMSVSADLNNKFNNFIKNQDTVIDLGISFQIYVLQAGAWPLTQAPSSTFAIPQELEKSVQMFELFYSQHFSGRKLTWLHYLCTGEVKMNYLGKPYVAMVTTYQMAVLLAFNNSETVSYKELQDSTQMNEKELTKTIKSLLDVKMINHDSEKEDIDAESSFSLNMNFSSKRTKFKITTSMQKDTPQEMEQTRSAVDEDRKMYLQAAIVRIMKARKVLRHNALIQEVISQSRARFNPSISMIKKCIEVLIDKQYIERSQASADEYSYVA
(A western blot detects proteins with antibodies after separation by electrophoresis.)
For the molecule B5, the binding result was “no binding”.

As to B6, the binding result is listed as “no binding”.

For the molecule B7, the binding result was “no binding”.

Take B8: the binding result was “no binding”.
